Data on eleven variants can be found in paper PMC8367383, “A CTP-dependent gating mechanism enables ParB spreading on DNA” (eLife, 2021).

First the molecules themselves.
B1: C. crescentus ParB on a cysteine-less ParB background [C. crescentus] / itself (parent)
chain: MESVVVGEPGMSEGRRGLGRGLSALLGEVDAAPACAPGEQLGGSREAPIEILQRNPDQPRRTFREEDLEDLSNSIREKGVLQPILVRPSPDTAGEYQIVAGERRWRAAQRAGLKTVPIMVRELDDLAVLEIGIIENVQRADLNVLEEALSYKVLMEKFERTQENIAQTIGKSRSHVANTMRLLALPDEVQSYLVSGELTAGHARAIAAAADPVALAKQIIEGGLSVRETEALARKAPNLSAGKSKGGRPPRVKDTDTQALESDLSSVLGLDVSIDHRGSTGTLTITYATLEQLDDLSNRLTRGI

Variants of B1 are the subject of this test. The experiment in a line: BMOE crosslinking assay. To be noted: with itself, 8 µM ParB variant, 0.5 µM 22 bp parS DNA, 5 min preincubation, read off a plot.
Where [1] appears, read: 1 µM CTP point (lowest), parent: 33.
The mark [2] stands for this setting: 1000 µM CTP point (highest), parent: 80.

In the case of MESVVVGEPGMSEGRRGLGRGLSALLGEVDAAPACAPGEQLGGSREAPIEILQRNPDQPRRTFREEDLEDLSNSIREKSVLQPILVRPSPDTAGEYQIVAGERRWRAAQRAGLKTVPIMVRELDDLAVLEIGIIENVQRADLNVLEEALSYKVLMEKFERTQENIAQTIGKSRSHVANTMRLLALPDEVQSYLVSGELTAGHARAIAAAADPVALAKQIIEGGLSVRETEALARKAPNLSAGKSKGGRPPRVKDTDTQALESDLSSVLGLDVSIDHRGSTGTLTITYATLEQLDDLSNRLTRGI [chain 1 G79S], the response under setting [1] is 27% and the response under setting [2] was 62%.
As for MESVVVGEPGMSEGRRGLGRGLSALLGEVDAAPACAPGEQLGGSREAPIEILQRNPDQPRRTFREEDLEDLSNSIREKGVLQPILVRPSPDTAGEYQIVAGEARWRAAQRAGLKTVPIMVRELDDLAVLEIGIIENVQRADLNVLEEALSYKVLMEKFERTQENIAQTIGKSRSHVANTMRLLALPDEVQSYLVSGELTAGHARAIAAAADPVALAKQIIEGGLSVRETEALARKAPNLSAGKSKGGRPPRVKDTDTQALESDLSSVLGLDVSIDHRGSTGTLTITYATLEQLDDLSNRLTRGI [chain 1 R103A], the response under setting [1] was 30% and the response under setting [2] was found to be 34%.
Turning to MESVVVGEPGMSEGRRGLGRGLSALLGEVDAAPACAPGEQLGGSREAPIEILQRNPDQPRRTFREEDLEDLSNSIREKGVLQPILVRPSPDTAGEYQIVAGERRWRAAQRAGLKTVPIMVRELDDLAVLEIGIIEAVQRADLNVLEEALSYKVLMEKFERTQENIAQTIGKSRSHVANTMRLLALPDEVQSYLVSGELTAGHARAIAAAADPVALAKQIIEGGLSVRETEALARKAPNLSAGKSKGGRPPRVKDTDTQALESDLSSVLGLDVSIDHRGSTGTLTITYATLEQLDDLSNRLTRGI [chain 1 N136A], the response runs as follows: under setting [1], 52%; under setting [2], 64%.
MESVVVGEPGMSEGRRGLGRGLSALLGEVDAAPACAPGEQLGGSREAPIEILQRNPDQPRRTFREEDLEDLSNSIREKGVLQPILVRPSPDTAGEYQIVAGERRWRAAQRAGLKTVPIMVRELDDLAVLEIGIIANVQRADLNVLEEALSYKVLMEKFERTQENIAQTIGKSRSHVANTMRLLALPDEVQSYLVSGELTAGHARAIAAAADPVALAKQIIEGGLSVRETEALARKAPNLSAGKSKGGRPPRVKDTDTQALESDLSSVLGLDVSIDHRGSTGTLTITYATLEQLDDLSNRLTRGI [chain 1 E135A]: the response by setting is: under setting [1], 68%; under setting [2], 80%.
As to MESVVVGEPGMSEGRRGLGRGLSALLGEVDAAPACAPGEQLGGSREAPIEILQRNPDQPRRTFREEDLEDLSNAIREKGVLQPILVRPSPDTAGEYQIVAGERRWRAAQRAGLKTVPIMVRELDDLAVLEIGIIENVQRADLNVLEEALSYKVLMEKFERTQENIAQTIGKSRSHVANTMRLLALPDEVQSYLVSGELTAGHARAIAAAADPVALAKQIIEGGLSVRETEALARKAPNLSAGKSKGGRPPRVKDTDTQALESDLSSVLGLDVSIDHRGSTGTLTITYATLEQLDDLSNRLTRGI [chain 1 S74A], the response runs as follows: under setting [1], 28%; under setting [2], 39%.
Take MESVVVGEPGMSEGRRGLGRGLSALLGEVDAAPACAPGEQLGGSREAPIEILQRNPDQPRRTFREEDLEDLSNSIREKGVLQPILVRPSPDTAGEYQIVAGARRWRAAQRAGLKTVPIMVRELDDLAVLEIGIIENVQRADLNVLEEALSYKVLMEKFERTQENIAQTIGKSRSHVANTMRLLALPDEVQSYLVSGELTAGHARAIAAAADPVALAKQIIEGGLSVRETEALARKAPNLSAGKSKGGRPPRVKDTDTQALESDLSSVLGLDVSIDHRGSTGTLTITYATLEQLDDLSNRLTRGI [chain 1 E102A]: the response under setting [1] came to 31% and the response under setting [2] amounted to 80%.
Consider MESVVVGEPGMSEGRRGLGRGLSALLGEVDAAPACAPGEQLGGSREAPIEILQRNPDQPARTFREEDLEDLSNSIREKGVLQPILVRPSPDTAGEYQIVAGERRWRAAQRAGLKTVPIMVRELDDLAVLEIGIIENVQRADLNVLEEALSYKVLMEKFERTQENIAQTIGKSRSHVANTMRLLALPDEVQSYLVSGELTAGHARAIAAAADPVALAKQIIEGGLSVRETEALARKAPNLSAGKSKGGRPPRVKDTDTQALESDLSSVLGLDVSIDHRGSTGTLTITYATLEQLDDLSNRLTRGI [chain 1 R60A], for which the response under setting [1] is 32% and the response under setting [2] turned out to be 49%.
The corresponding values for MESVVVGEPGMSEGRRGLGRGLSALLGEVDAAPACAPGEQLGGSREAPIEILQRNPDQPRRTFREEDLEDLSNSIREKGVLQPILVRPSPDTAGEYQIVAGERRWRAAQRAGLKTVPIMVRELDDLAVLEIGIIENVQAADLNVLEEALSYKVLMEKFERTQENIAQTIGKSRSHVANTMRLLALPDEVQSYLVSGELTAGHARAIAAAADPVALAKQIIEGGLSVRETEALARKAPNLSAGKSKGGRPPRVKDTDTQALESDLSSVLGLDVSIDHRGSTGTLTITYATLEQLDDLSNRLTRGI [chain 1 R139A] are 28% and 36%.
The corresponding values for MESVVVGEPGMSEGRRGLGRGLSALLGEVDAAPACAPGEQLGGSREAPIEILQRNPDQPRRTFREEDLEDLSNSIREKGVLAPILVRPSPDTAGEYQIVAGERRWRAAQRAGLKTVPIMVRELDDLAVLEIGIIENVQRADLNVLEEALSYKVLMEKFERTQENIAQTIGKSRSHVANTMRLLALPDEVQSYLVSGELTAGHARAIAAAADPVALAKQIIEGGLSVRETEALARKAPNLSAGKSKGGRPPRVKDTDTQALESDLSSVLGLDVSIDHRGSTGTLTITYATLEQLDDLSNRLTRGI [chain 1 Q82A] are 31% and 76%.
As to MESVVVGEPGMSEGRRGLGRGLSALLGEVDAAPACAPGEQLGGSREAPIEILQRNPDAPRRTFREEDLEDLSNSIREKGVLQPILVRPSPDTAGEYQIVAGERRWRAAQRAGLKTVPIMVRELDDLAVLEIGIIENVQRADLNVLEEALSYKVLMEKFERTQENIAQTIGKSRSHVANTMRLLALPDEVQSYLVSGELTAGHARAIAAAADPVALAKQIIEGGLSVRETEALARKAPNLSAGKSKGGRPPRVKDTDTQALESDLSSVLGLDVSIDHRGSTGTLTITYATLEQLDDLSNRLTRGI [chain 1 Q58A], the response by setting is: under setting [1], 64%; under setting [2], 79%.
As to MESVVVGEPGMSEGRRGLGRGLSALLGEVDAAPACAPGEQLGGSREAPIEILQRNPDQPRRTFREEDLEDLSNSIREKGVLQPILVRPSPDTAGEYQIVAGERAWRAAQRAGLKTVPIMVRELDDLAVLEIGIIENVQRADLNVLEEALSYKVLMEKFERTQENIAQTIGKSRSHVANTMRLLALPDEVQSYLVSGELTAGHARAIAAAADPVALAKQIIEGGLSVRETEALARKAPNLSAGKSKGGRPPRVKDTDTQALESDLSSVLGLDVSIDHRGSTGTLTITYATLEQLDDLSNRLTRGI [chain 1 R104A], the response came out at 24% under setting [1] and 23% under setting [2].
